For assay [1], the target named is T1, Msi3, the sole Hsp110 of Candida albicans (Candida albicans, UniProt Q96VB9 1-701).
T1 chain: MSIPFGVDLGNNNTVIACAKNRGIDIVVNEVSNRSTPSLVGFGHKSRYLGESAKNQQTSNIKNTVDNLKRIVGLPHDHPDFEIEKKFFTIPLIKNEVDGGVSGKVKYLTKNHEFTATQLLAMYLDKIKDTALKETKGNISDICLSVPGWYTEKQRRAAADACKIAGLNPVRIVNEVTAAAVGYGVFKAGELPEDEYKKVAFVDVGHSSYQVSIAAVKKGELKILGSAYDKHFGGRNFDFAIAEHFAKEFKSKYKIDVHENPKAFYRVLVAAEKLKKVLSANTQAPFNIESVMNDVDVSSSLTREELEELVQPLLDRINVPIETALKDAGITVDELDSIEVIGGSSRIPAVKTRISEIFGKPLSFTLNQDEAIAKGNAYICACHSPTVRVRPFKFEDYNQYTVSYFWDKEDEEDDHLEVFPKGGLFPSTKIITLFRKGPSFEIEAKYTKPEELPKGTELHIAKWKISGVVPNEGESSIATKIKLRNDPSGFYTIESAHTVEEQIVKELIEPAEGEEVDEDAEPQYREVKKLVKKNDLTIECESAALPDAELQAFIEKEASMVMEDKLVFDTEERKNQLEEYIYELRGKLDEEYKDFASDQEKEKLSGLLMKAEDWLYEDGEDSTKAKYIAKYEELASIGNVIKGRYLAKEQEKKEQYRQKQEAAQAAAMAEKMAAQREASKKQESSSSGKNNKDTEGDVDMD
Put plainly: FP; +2H (100 µM).

The target of assay [2] is T1, Msi3, the sole Hsp110 of Candida …. As to the kind of experiment: FP.

Where no end group is shown, it is not given here.

The Kd is the constant that tells how readily two partners part at equilibrium. As to fluorescein-VYDFFVWL [TRP2-181 peptide labeled with a fluorescein at the N-terminus], the Kd in assay [1] is 5.45 µM; in assay [2], 0.65 µM.
